Data from patent US20240218393, “VECTORS ENCODING GENE EDITING SYSTEMS AND USES THEREOF” (Mammoth Biosciences, Inc., published 2024).

B1: sgRNA SEQ 202 ; target of sgRNA SEQ 202 (protospacer) (ssRNA ; dsDNA)
RNA: UGGGGCAGUUGGUUGCCCUUAGCCUGAGGCAUUUAUUGCACUCGGGAAGUACCAUUUCUCAGAAAUGGUACAUCCAACUCUAGGCGCCCGCUAAGUUC
DNA 1: TCTAGGCGCCCGCTAAGTTC
DNA 2: GAACTTAGCGGGCGCCTAGA
B2: sgRNA SEQ 206 ; target of sgRNA SEQ 206 (protospacer) (ssRNA ; dsDNA)
RNA: UGGGGCAGUUGGUUGCCCUUAGCCUGAGGCAUUUAUUGCACUCGGGAAGUACCAUUUCUCAGAAAUGGUACAUCCAACGGGGGCGGGGGGGAGAAAAA
DNA 1: GGGGGCGGGGGGGAGAAAAA
DNA 2: TTTTTCTCCCCCCCGCCCCC
B3: sgRNA SEQ 204 ; target of sgRNA SEQ 204 (protospacer) (ssRNA ; dsDNA)
RNA: UGGGGCAGUUGGUUGCCCUUAGCCUGAGGCAUUUAUUGCACUCGGGAAGUACCAUUUCUCAGAAAUGGUACAUCCAACCGUGCUGUUUCCUCCCCACG
DNA 1: CGTGCTGTTTCCTCCCCACG
DNA 2: CGTGGGGAGGAAACAGCACG

Target: T1, CasM.19952
T1 chain: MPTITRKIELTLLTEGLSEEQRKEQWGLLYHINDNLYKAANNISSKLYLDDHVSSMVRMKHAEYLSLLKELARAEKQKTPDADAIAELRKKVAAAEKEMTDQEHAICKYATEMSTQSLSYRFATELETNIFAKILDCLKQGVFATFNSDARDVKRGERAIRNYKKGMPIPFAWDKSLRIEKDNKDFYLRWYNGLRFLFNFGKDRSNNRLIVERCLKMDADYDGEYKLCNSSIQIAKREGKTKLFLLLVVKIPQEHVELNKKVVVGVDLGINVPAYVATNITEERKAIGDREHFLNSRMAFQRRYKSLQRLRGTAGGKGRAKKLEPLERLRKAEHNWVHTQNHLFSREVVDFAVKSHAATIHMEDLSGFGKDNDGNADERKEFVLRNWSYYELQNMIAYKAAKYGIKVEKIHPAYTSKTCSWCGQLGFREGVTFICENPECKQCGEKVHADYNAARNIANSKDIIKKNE
Experiment: cell_activity; HEK293T, plasmid lipofection; PAM TCG or KYG (Table 1.1)
Settings: tags: expressed from plasmid or scAAV
Method: CasM.19952 was tested for its ability to produce indels in HEK293T cells. Briefly, a plasmid encoding CasM.19952 and a guide RNA was delivered by lipofection to HEK293T cells. This was performed for a variety of guide RNAs targeting up to twenty-four loci adjacent to biochemically determined PAM sequences. Indels were detected by next generation sequencing of PCR amplicons at the targeted loci and indel percentage was calculated as the fraction of sequencing reads containing insertions or deletions relative to an unedited reference sequence. Sequencing libraries with less than 20% of reads aligning to the reference sequence were excluded from the analysis for quality control purposes. “No plasmid” and SpyCas9 were included as negative and positive controls, respectively. […] TABLE 8 describes the sequences of the single guide RNAs tested that provided the greatest percent of reads with indels. Non-bold, non-italicized, capital letters indicate the tracrRNA region of the guide RNA; italicized letters indicate a linker; bold letters indicate the repeat sequence; and the lowercase letters represent the spacer sequence.

Row | Binder | activity
1 | B1 | 13.5 % indel reads
2 | B2 | 18.4 % indel reads
3 | B3 | 19.4 % indel reads
